This series deals with SARS-CoV-2 nucleocapsid N protein wild type (SARS-CoV-2) (UniProt P0DTC9). Put plainly: fluorescence anisotropy. (Fluorescence polarisation rises when a labelled molecule tumbles more slowly, as on binding a larger partner.)

pKd: −log10 of the molar value.

As usually defined, the pKd is the negative decadic logarithm of the Kd, by convention in mol/L. The sequence NNNNNNNNNN [10-nt degenerate RNA] had a negative-log Kd (pKd) of 7.55.

The record behind these values is PMC9164447.
